According to US20160089413:

Tested on: all-D-retro-inverso JNK-inhibitor (poly-)peptide of SEQ ID NO: 11

**Q.** What does the source list for c-Jun NH2-terminal kinases (JNK)?
**A.** c-Jun phosphorylation in RPE/choroid, densitometry of phospho c-Jun relative to tubulin, 24 h after IV injection (20 µg/kg): 0.28±0.01 vs 0.77±0.26 in IV of vehicle; c-Jun phosphorylation in RPE/choroid, densitometry of phospho c-Jun relative to tubulin, 24 h after IVT injection (0.2 µg/injection): 0.35±0.08 vs 0.79±0.25 in IVT of vehicle; c-Jun phosphorylation in RPE/choroid, densitometry of phospho c-Jun relative to tubulin, fold decrease against vehicle: An approximately 3-fold decrease in c-Jun phosphorylation
